In US20190361013A1 (SCUOLA NORMALE SUPERIORE, published 2019):

T1: LexA-Integrase-p300wt-HA (Integrase constitutively acetylated in cis by the fused p300 wt HAT; positions not stated)
T1 construct: Tethered catalysis bait expressed in L40 yeast from pMICBD1; also called IN-HATwt-HA; screening bait
T1 chain: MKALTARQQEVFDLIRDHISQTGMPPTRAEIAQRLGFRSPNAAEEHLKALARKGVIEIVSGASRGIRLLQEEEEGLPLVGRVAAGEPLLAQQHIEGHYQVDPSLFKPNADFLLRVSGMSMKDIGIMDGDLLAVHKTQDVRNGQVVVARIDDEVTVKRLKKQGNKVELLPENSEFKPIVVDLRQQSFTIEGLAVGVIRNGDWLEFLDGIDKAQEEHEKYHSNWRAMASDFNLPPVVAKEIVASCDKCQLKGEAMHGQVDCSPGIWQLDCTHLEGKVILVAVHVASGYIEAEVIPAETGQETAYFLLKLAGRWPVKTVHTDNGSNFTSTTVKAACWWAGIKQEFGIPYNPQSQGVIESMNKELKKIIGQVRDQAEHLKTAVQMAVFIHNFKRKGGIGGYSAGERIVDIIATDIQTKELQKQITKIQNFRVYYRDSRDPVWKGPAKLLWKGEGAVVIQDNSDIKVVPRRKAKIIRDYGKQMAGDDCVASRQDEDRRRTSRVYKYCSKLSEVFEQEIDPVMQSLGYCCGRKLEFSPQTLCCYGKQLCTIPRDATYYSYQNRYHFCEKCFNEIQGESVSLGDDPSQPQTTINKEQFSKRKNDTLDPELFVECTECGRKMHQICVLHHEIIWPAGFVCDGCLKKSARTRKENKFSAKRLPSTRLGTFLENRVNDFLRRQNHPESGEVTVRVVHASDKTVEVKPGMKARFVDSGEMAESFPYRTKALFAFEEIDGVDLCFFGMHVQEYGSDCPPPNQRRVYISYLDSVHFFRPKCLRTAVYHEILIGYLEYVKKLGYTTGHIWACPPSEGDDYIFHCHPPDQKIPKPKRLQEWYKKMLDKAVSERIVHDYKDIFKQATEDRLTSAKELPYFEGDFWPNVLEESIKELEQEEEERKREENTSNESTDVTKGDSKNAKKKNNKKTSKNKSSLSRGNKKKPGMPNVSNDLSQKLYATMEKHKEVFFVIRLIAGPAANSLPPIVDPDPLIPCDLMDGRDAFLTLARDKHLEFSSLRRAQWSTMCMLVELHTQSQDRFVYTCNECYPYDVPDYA

T2: LexA-IN
T2 construct: Non-acetylated Integrase bait; also called LexA-Integrase; IN-stop (non-acetylated)
T2 chain: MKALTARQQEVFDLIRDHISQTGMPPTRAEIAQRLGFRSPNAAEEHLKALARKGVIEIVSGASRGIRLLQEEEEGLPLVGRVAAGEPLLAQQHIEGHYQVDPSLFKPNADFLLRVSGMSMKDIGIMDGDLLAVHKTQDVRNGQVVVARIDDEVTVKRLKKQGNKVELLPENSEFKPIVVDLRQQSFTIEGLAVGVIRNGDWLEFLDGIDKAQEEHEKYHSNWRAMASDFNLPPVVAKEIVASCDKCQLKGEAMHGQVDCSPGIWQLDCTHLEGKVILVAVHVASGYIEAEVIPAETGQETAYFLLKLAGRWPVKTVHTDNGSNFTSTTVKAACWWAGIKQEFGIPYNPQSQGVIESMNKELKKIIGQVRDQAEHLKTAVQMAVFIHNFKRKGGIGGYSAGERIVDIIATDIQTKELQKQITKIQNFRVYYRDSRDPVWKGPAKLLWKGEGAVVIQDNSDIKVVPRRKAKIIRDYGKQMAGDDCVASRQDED


How the values were obtained:
Assay in all cases: yeast two-hybrid (IACT), VP16 prey vs LexA bait, secondary screening
[1] = target: T3, LexA-HistoneH3-Gcn5mut-HA
T3 construct: Control bait; H3 not acetylated; also called LexA-H3-Gcn5mut-HA

LexA-Gcn5wt-HA = target: T4, LexA-Gcn5wt-HA
T4 construct: Control bait without H3

LexA-Gcn5mut-HA = target: T5, LexA-Gcn5mut-HA
T5 construct: Control bait without H3

LexA-Integrase-p300wt-HA = target: T1, LexA-Integrase-p300wt-HA
LexA-IN = target: T2, LexA-IN

Binder | binding result [1] | binding result (LexA-Gcn5wt-HA) | binding result (LexA-Gcn5mut-HA) | binding result (LexA-Integrase-p300wt-HA) | binding result (LexA-IN)
ScFv-58F (scFv, not shown: large carriers, Yeast two-hybrid prey from mouse naive SPLINT ScFv library; also called ScFv-58 intrabody) scFv: DILMTQSPAIMSASPGEKVTMTCRASSSVSSSYLHWYQQKSGASPKLWIYSTSNLASGVPARFSGSGSGTSYSLTISSVEAEDAATYYCQQYSGYPWTSGGGTKLEIKRSGGSTSGSGKPGSGEGSSSTEVKVEESGGGLVQPGGSMKLSCVASGFTFSNYWMNWVRQSPEKGLEWVAEIRLKSNNYATHYAESVKGRFTISRDDSESSVYLQMNNLRAEDTGIYYCTRRNGPSSRAMDYWGQGTTVTVSS | no binding | no binding | no binding |  | 
VH-12A (VHH, not shown: large carriers, Single mouse VH domain split from ScFv-12A, as yeast two-hybrid prey; also called VH-12X) VHH: QVQLQQSGAELVKPGASVKLSCTASGFNIKDTYMHWVKQRPEQGLEWIGRIDPANGNTKYDPKFQGKATITADTSSNTAYLQLSSLTSEDTAVYYCASLLWWGQGTLVTVSA |  |  |  | binds | binds
